Where two headings read alike, the source gives them in different places. Each block holds one binder with its values, some of them ahead of it.
Legend:
human IL-13 [1] = target: T1, human IL-13 (human, UniProt P35225 15-146); assay: cell-based or functional assay
murine IL-13 [2] = target: T2, murine IL-13 (mouse, UniProt P20109 21-131, limits assumed); assay: cell-based or functional assay
T2 sequence (looked up): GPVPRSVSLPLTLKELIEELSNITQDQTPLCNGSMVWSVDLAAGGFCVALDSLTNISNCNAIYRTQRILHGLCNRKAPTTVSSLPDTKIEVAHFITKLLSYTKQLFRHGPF

murine IL-13 [3] = target: T2, murine IL-13; assay: BIAcore, IgG4 coupled to CM5 chip, murine IL-13 passed over
[4] = target: T3, non-human primate IL-13 (rhesus and cynomolgus, identical), baculovirus expressed, carboxyl terminus affinity … (rhesus and cynomolgus monkey, UniProt Q5I6E4 21-132 (Macaca thibetana entry)); assay: cell-based or functional assay
T3 chain: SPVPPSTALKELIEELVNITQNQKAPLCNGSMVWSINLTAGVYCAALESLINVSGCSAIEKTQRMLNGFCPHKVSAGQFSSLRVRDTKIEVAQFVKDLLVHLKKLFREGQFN

[5] = target: T4, wild type human IL-13, baculovirus expressed, carboxyl terminus affinity tag (human, UniProt P35225 33-146); assay: cell-based or functional assay
T4 sequence (P35225 other isoform, or with tags, fused parts or gaps): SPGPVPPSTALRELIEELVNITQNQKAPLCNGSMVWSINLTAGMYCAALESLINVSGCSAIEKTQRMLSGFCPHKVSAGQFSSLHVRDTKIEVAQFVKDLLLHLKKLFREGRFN

human IL-13 [6] = target: T1, human IL-13; assay: cell-based or functional assay; remark: listed apart in the source
[7] = target: human IL-13 variant (Q130R), baculovirus expressed, carboxyl terminus affinity tag (human, UniProt P35225 33-146); assay: cell-based or functional assay
Chain of human IL-13 variant (Q130R), baculovirus expressed, carboxyl terminus affinity tag (P35225 33-146 limits assumed, stated change not applied, form in doubt): as the sequence (P35225 other isoform, or with tags, fused parts or gaps) above, with R112Q counted along it

[8] = target: native (naturally occurring) human IL-13 released from HDLM-2 cells (human, UniProt P35225 15-146); assay: cell-based or functional assay
Chain of native (naturally occurring) human IL-13 released from HDLM-2 cells (P35225 other isoform, or with tags, fused parts or gaps): as the sequence (P35225 other isoform, or with tags, fused parts or gaps) above

[9] = target: T3, non-human primate IL-13 (rhesus and …); assay: cell-based or functional assay
human IL-13 [10] = target: T1, human IL-13; assay: BIAcore, IgG coupled to CM5 chip, IL-13 50 nM to 0.78 nM passed over
[11] = target: T4, wild type human IL-13, baculovirus …; assay: cell-based or functional assay; remark: listed apart in the source

T1 sequence (P35225 other isoform, or with tags, fused parts or gaps): as above

IC50, TF-1 cell proliferation assay (human IL-13 [1]): 3 nM
B1: BAK615E3 scFv (scFv, V domains shown)
VH: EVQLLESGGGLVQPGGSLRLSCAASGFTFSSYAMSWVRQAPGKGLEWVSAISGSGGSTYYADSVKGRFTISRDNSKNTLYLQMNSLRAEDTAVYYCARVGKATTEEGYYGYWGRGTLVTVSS
VL: NFMLTQPHSVSESPGKTVTISCTRSSGSIASNYVQWYQQRPGSAPTTVIYDDNQRPSGVPDRFSGSIDSSSNSASLTISGLKTEDEADYYCQSYDSNNDVFGGGTKVTVL

IC50, TF-1 cell proliferation assay (murine IL-13 [2]): 185 nM
B2: BAK209B11 scFv (scFv, V domains shown)
VH: VQLQESGGGGLVQPGGSLRLSCAASGFTFSSYGMSWVRQAPGKGLEWVSSISASGDSTFYADSVKGRFTISRDNNKNMVFLQVNSLRADDTAVYFCAKDWSQWLVGDAFDVWGRGTTVTVSS
VL: DIQLTQSPSTLSASVGDRVTITCRASQSVSLWVAWYQQRPGKAPKLLIYDGSTLQSGVPARFSGSGSGTEFTLTISSLQPDDFATYYCQQYKTFSTFGQGTKVEIK

Kd (human IL-13 [10]): 13.5 nM | koff (human IL-13 [10]): 0.00741 s⁻¹ | kon (human IL-13 [10]): 549000 M⁻¹ s⁻¹
B6: BAK278D6 IgG (antibody, V domains shown)
VH: EVQLVQSGAEVKKPGASVKVSCKASGYTFRNYGLSWVRQAPGQGLEWMGWISANNGDTNYGQEFQGRITMTTETSTNTAHMELRSLRSDDTAVYYCVRDSSSNWARWFFDLWGKGTMVTVSS
VL: SYVLTQPPSVSVAPGQTARIPCGGNNIGSKLVHWYQQKPGQAPVLVVYDDGDRPSGIPERFSGSNSGNTATLTISRIDAGDEADYYCQVWDTGSDPVVFGGGTKLTVL

IC50, TF-1 cell proliferation assay [11]: 0.9 nM | IC50, TF-1 cell proliferation assay [7]: 1 nM | IC50, HDLM-2 cell proliferation assay [8]: 3.5 nM
B8: BAK1183H4 IgG4 (antibody, V domains shown)
VH: QVQLVQSGAEVKKPGASVKVSCKASGYTFTNYGLSWVRQAPGQGLEWMGWINYDGGNTQYGQEFQGRVTMTTDTSTSTAYMELRSLRSDDTAVYYCARDSSSSWARWFFDLWGRGTLVTVSS
VL: SYVLTQPPSVSVAPGKTARITCGGNIIGSKLVHWYQQKPGQAPVLVIYDDGDRPSGIPERFSGSNSGNTATLTISRVEAGDEADYYCQVWDTGSDPVVFGGGTKLTVL

The next lines start with the binder.

B3: BAK209B11 human IgG4 (antibody, V domains shown)
VH: VQLQESGGGGLVQPGGSLRLSCAASGFTFSSYGMSWVRQAPGKGLEWVSSISASGDSTFYADSVKGRFTISRDNNKNMVFLQVNSLRADDTAVYFCAKDWSQWLVGDAFDVWGRGTTVTVSS
VL: DIQLTQSPSTLSASVGDRVTITCRASQSVSLWVAWYQQRPGKAPKLLIYDGSTLQSGVPARFSGSGSGTEFTLTISSLQPDDFATYYCQQYKTFSTFGQGTKVEIKR
IC50, B9 cell proliferation assay (murine IL-13 [2]): 776 pM | Kd (murine IL-13 [3]): 5.1 nM | koff (murine IL-13 [3]): 0.0198 s⁻¹ | kon (murine IL-13 [3]): 3.9e+06 M⁻¹ s⁻¹

B4: BAK278D6 scFv (scFv, V domains shown)
VH: EVQLVQSGAEVKKPGASVKVSCKASGYTFRNYGLSWVRQAPGQGLEWMGWISANNGDTNYGQEFQGRITMTTETSTNTAHMELRSLRSDDTAVYYCVRDSSSNWARWFFDLWGKGTMVTVSS
VL: SYVLTQPPSVSVAPGQTARIPCGGNNIGSKLVHWYQQKPGQAPVLVVYDDGDRPSGIPERFSGSNSGNTATLTISRIDAGDEADYYCQVWDTGSDPVVFGGGTKLTVL
IC50 (read off the curve); TF-1 cell proliferation, 50 ng/ml non-human primate IL-13 [4]: ~90 nM | IC50 (read off the curve); TF-1 cell proliferation, 25 ng/ml human IL-13 [5]: ~70 nM | IC50, TF-1 cell proliferation assay (human IL-13 [6]): 44 nM

B5: BAK502G9 IgG4 (antibody, V domains shown)
VH: QVQLVQSGAEVKKPGASVKVSCKASGYTFTNYGLSWVRQAPGQGLEWMGWISANNGDTNYGQEFQGRVTMTTDTSTSTAYMELRSLRSDDTAVYYCARDSSSSWARWFFDLWGRGTLVTVSS
VL: SYVLTQPPSVSVAPGKTARITCGGNIIGSKLVHWYQQKPGQAPVLVIYDDGDRPSGIPERFSGSNSGNTATLTISRVEAGDEADYYCQVWDTGSDPVVFGGGTKLTVL
IC50, TF-1 cell proliferation assay [7]: 1.9 nM | IC50, HDLM-2 cell proliferation assay [8]: 4.6 nM | IC50, TF-1 cell proliferation assay [9]: 2 nM

B7: BAK1167F2 IgG4 (antibody, V domains shown)
VH: QVQLVQSGAEVKKPGASVKVSCKASGYTFEQTGVSWVRQAPGQGLEWMGWISANNGDTNYGQEFQGRVTMTTDTSTSTAYMELRSLRSDDTAVYYCARDSSSSWARWFFDLWGRGTLVTVSS
VL: SYVLTQPPSVSVAPGKTARITCGGNIIGSKLVHWYQQKPGQAPVLVIYDDGDRPSGIPERFSGSNSGNTATLTISRVEAGDEADYYCQVWDTGSDPVVFGGGTKLTVL
IC50, TF-1 cell proliferation assay [11]: 1 nM | IC50, TF-1 cell proliferation assay [7]: 1.1 nM | IC50, HDLM-2 cell proliferation assay [8]: 1.1 nM
